Laboratory results published in the supplement of paper PMC9170038.

System: K4 kissing-loop RNA reporter
Experiment: apparent KD of K4 kissing-loop reporter; higher = weaker reporter binding
Settings: Eterna round: R107
Experimental: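 RNA-MaP round R107: designed RNA switches with theophylline, tryptophan, arginine or FMN aptamers are transcribed on-chip within common flanks. They are titrated with a labelled K4 kissing-loop RNA reporter in RNA-MaP buffer (100 mM Tris pH 7.5, 80 mM KCl, 4 mM MgCl2), without ligand or with the indicated ligand. Median apparent KD per design.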

[1] = input ligand: theophylline 20 uM
[2] = input ligand: tryptophan 2.4 mM
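Note: bound reporter read as fluorescence of individual clusters on recovered sequencing chips by microscopy, with normalized cluster intensities fitted with a binding model.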

| Sequence | apparent KD of K4 kissing-loop reporter (input ligand: FMN 200 uM) [µM] | apparent KD of K4 kissing-loop reporter (input ligand: arginine 13.2 mM) [µM] | apparent KD of K4 kissing-loop reporter (input ligand: none) [µM] | apparent KD of K4 kissing-loop reporter [1] [µM] | apparent KD of K4 kissing-loop reporter [2] [µM] |
| --- | --- | --- | --- | --- | --- |
| GGAUCCACCAGUGAUGUUGGAGAAAACUUCAAGGAUAUGACGAAAGUCAGAAGGUGGUAGACUGGACAAAGUCCGGUGGGAUCCA [FmnA10 U29+G78] | 0.622 | 0.214 | 0.264 | 0.566 | 0.198 |
| GGAUUGCCAGUGAUGUUGGCAUAAACUGAAGGAGCGCGUGAAAACGCAGGUAGGUCGCAGAACCUUGCCAACUAUUUUAUUUACC [Ex Arginine A K4 23] | 0.0893 | 0.118 | 0.0979 | 0.103 | 0.0798 |
| GGCACGGUGACGCGGCUGCCGUGCGCUUGGGAGGAUAUGUUUCGUGACAGAAGGCCCAGUGAUGUUGGGUCUGUUCAAAAGGACU [Edmatianri] | 0.339 | 0.104 | 0.125 | 0.121 | 0.104 |
| GGCAGUGAUGUUGCCAGUGGCAGAUGCGAAGGAGCGCGGUGAGACGCAGGUAGGUCGCGCAUUGAAAUUGCUGUCACUAAAAUGC [#1] | 0.261 | 0.274 | 0.29 | 0.32 | 0.238 |
| GGCAGUGAUGUUGCCAGUGGCAGAUUGGAAGGAGCGUGGUGAGACACAGGUAGGUCGCUAAUUGAAGUUGCUGUCACUAAAAUGC [whbob_Ex_Arginine_A_2t131] | 0.276 | 0.299 | 0.307 | 0.26 | 0.241 |
| GGCAUAGUCUCAACGUGUGGUUGGGUUGGGAAGGAUAUUUGAUCGAAAAGAAGGUCCCGCAUUGAGUGAUGUUCAAGGGCUCCAA [theeternabot_exclusion_KL_FMN_A_26] | 0.226 | 0.22 | 0.262 | 0.213 | 0.246 |
| GGCGAAUAAAAUCGCCUAGAGAGAAAGGAUACCAGCACCCGGCGGUGCCCUUGGCAGCCUAGCCCAGUGAUGUUGGGUCCUCUAA [Biaveinbe] | 0.263 | 0.121 | 0.14 | 0.345 | 0.206 |
| GGCUCCUACGGAGGAUAUAGUAGCCCAGAGUGAUGUUCUAGGGUGUUUUCCGAUUUAGUCAUUGUUCUAGAAGGCCGUAGGAGCC | 0.266 | 0.177 | 0.189 | 0.183 | 0.21 |
| GGCUUAUUCUAUGAUACCAGCGUCACAUCGGGACUGCGCACGCAGCAGGCGAGUGAUGUUCGCCCUUGGCAGCAUCUCGGCGACU [theeternabot_exclusion_KL_Theo_B_26] | 0.373 | 0.23 | 0.249 | 0.25 | 0.232 |
| GGCUUGCCAGUGAUGUUGGCAUAAACUGAAGGAGCGCGUGAAAACGCAGGUAGGUCGCAGAACCUUGCCAACUAUUUUAUUUGCC [Ex Arginine A K4 24] | 0.192 | 0.223 | 0.212 | 0.252 | 0.21 |
| GGGAAGAAGGCGGCCGCCACUGCAGAAGAGACAGAGAGGGAAGAAGAGGAGUGAUGUUCCAAGAACAGGACCGGGCCAAGAAGGG [whbob_SS_Tryp_B_t29] | 0.598 | 0.137 | 0.119 | 0.284 | 0.0929 |
| GGGAAGGAGUGAUGUUUCUUCUGAAUUUCUAAGGAUAUACGAUGCGGUAGAAGGUAGAUGCCUUGCAGGAAAUGUUCACCACGCG [theeternabot_exclusion_KL_FMN_A_2] | 0.218 | 0.146 | 0.15 | 0.184 | 0.158 |
| GGGAGUAGUGCGGCCGCCACUGAGAAAGAAGAAGAAUAUAGUGAUGUUAUGUGGGAAAGGAAGAACAGGACCGGGCAUUAGAUUU [#21 K4 Tryptophan B Same State] | 0.821 | 0.45 | 0.488 | 0.441 | 0.499 |
| GGGAGUAGUGCGGCCGCCACUGAGAAAGAAGAAGAAUGUAGUGAUGUUAUGUAGGAAAGGAAGAACAGGACCGGGCAUUAGAUUU [SSTRyptB.H] | 0.478 | 0.443 | 0.354 | 0.84 | 0.497 |
| GGGUCAGUCUGAAGGAGCGGCCAGACAGAGCAGUGAUGUUGCUCCUCCGGAAACGGUGUCGGCCAGGUAGGUCGCAGAUUGGCUC [Dienralais mod v1] | 0.153 | 0.122 | 0.137 | 0.127 | 0.124 |
| GGGUUGAACUGAAGGAGCGAGAAAUAGAAAGUAAGAAGAUAAGCUAGUGAUGUUAGAAAUUCUCAGGUAGGUCGCAGUAAGAAUU [V3] | 0.338 | 0.325 | 0.354 | 0.28 | 0.258 |
| GGUAGCAUGAUGGAUACCAGUCCAAAUGGAGUGAUGUUCCAACAACAGGUUAGGCUGCUGGACCCUUGGCAGCCGUCAUGCUACC | 0.141 | 0.12 | 0.16 | 0.121 | 0.133 |
| GGUAGCAUGGCGGCCGCCACUAACAACCUCACCUGCGGCUCGAUCGAGUGAUGUUCGAACGCAAUUAGGACCGGGCCAUGCUACC | 0.243 | 0.0648 | 0.141 | 0.143 | 0.122 |
| GGUAGCAUGGCGGCCGCCACUCGCAUCACAGGCCAUUAACCGCCCUCGUAAAGUGAUGUUUUACAGAGGACCGGGCCAUGCUACC | 0.331 | 0.257 | 0.297 | 0.323 | 0.195 |
| GGUAGCAUGGCGGCCGCCACUGAGGCCCUAUACGAGUCCUAAACAACCUAGUGAUGUUAGGAGUCCAGGACCGGGCCAUGCUACC | 0.271 | 0.175 | 0.254 | 0.262 | 0.44 |
| GGUAGUGCUAGCGAUACCAGUCAUAUCGCUCUGGAGUGAUGUUCCGGAACGUGCGGAGAAGACCCUUGGCAGCGCUUGACGGUGU [Exclusion Theophylline B GF5] | 0.218 | 0.234 | 0.318 | 0.251 | 0.298 |
| GGUCCGCGGUCGGCCGCCACUGAACAAGACCAGUGAUGUUGGAUCUUCCAGUGCGUUGGCUUUAACAGGACCGGGACCGUGGAGC [Titia] | 0.139 | 0.132 | 0.145 | 0.14 | 0.164 |

| Sequence | apparent KD of K4 kissing-loop reporter (input ligand: FMN 200 uM) [µM] | apparent KD of K4 kissing-loop reporter (input ligand: arginine 13.2 mM) [µM] | apparent KD of K4 kissing-loop reporter (input ligand: none) [µM] | apparent KD of K4 kissing-loop reporter [1] [µM] | apparent KD of K4 kissing-loop reporter [2] [µM] |
| --- | --- | --- | --- | --- | --- |
| GGUGACAACCAGAGGUGAUGUAUAGUAUCGCGAGGACCGGUACGGCCGCCACUCGUGAAGAGAAAGGAGUGAUGUUCCGUAAUGG [Kazoo C7] | 0.287 | 0.276 | 0.272 | 0.39 | 0.138 |
| GGUGUGCCAGUGAUGUUGGCAUAAACUGAAGGAGCGCGUGAAAACGCAGGUAGGUCGCAGAACCUUGCCAACUAUUUUAUUCACC [Ex Arginine A K4 25] | 0.181 | 0.174 | 0.176 | 0.236 | 0.168 |
| GGUUAGUGAUGUUGAUCAAAUCGCGGUGAUACCAGCAACACAUCGUGCCCUUGGCAGCACGGCAAAAUGAAUGCGGUCGAAUGCG [theeternabot_exclusion_KL_Theo_A_19] | 0.487 | 0.484 | 0.546 | 0.478 | 0.412 |
| GUACGGCGGGCGGCCGCCACUGGUAUACGAGUGAUGUUCGGAUAUACGUGAUGUAUGGUAAUUAACAGGACCGGGUCAGGGCCGG [whbob_SS_Tryp_B_t23] | 0.115 | 0.158 | 0.229 | 0.147 | 0.119 |
| GUAGCACUUGACAGUGAUGUUGUCAAGGACAAGGAUAUCAUCUCAAUGAGAAGGUGUCCUUGAUAACAGCUACGGGAAUAUCCCA [Omei KL FMN A Exc D v3] | 0.312 | 0.108 | 0.136 | 0.12 | 0.123 |
| GUAGCACUUGAUAGUGAUGUUAUCAAGGACAAGGAUAUCAUCUCAAUGAGAAGGUGUCCUUGAUAACAGCUACGGGAAUAUCCCA [Omei KL FMN A Exc D v1] | 0.103 | 0.267 | 0.288 | 0.28 | 0.312 |
| GUAGGAUGAGGAGGAGGAUGAAUUACUGAAGGAGCGCAUAUAAAUGCAGGUAGGUCGCGGUAAAGAAGUAUAGUGAUGUUAUAUA [SSArgA.G] | 0.421 | 0.636 | 0.58 | 0.438 | 0.329 |
| GUCAUCAGAUCGCAAGAUCUGAUAGCCGAUACCAGCGCGAAGGUGCGCCCUUGGCAGCGGCACCGAGUGAUGUUCGGUCAGACGG [#2 Same State - Theophylline A Attempt #4 (HarryS)] | 0.658 | 0.796 | 0.776 | 0.44 | 0.594 |
| GUCCCAGUGAUGUUGGUAGGCGGGCGGGAUACCAGCGGAGACUCACGCCCUUGGCAGCCCACAUAUCCCGCGUAGGGAUUAGCCC [Same State - Theophylline A (Freestyle 23)] | 0.285 | 0.258 | 0.316 | 0.339 | 0.275 |
| GUCCCGAGUGAUGUUCGGGUCGUUCGGGAAGGAGCGCCCGGAAGGGCAGGUAGGUCGCCCGGAUCCCUCAGGUAACUGAGGGACC [#2 Same State - Arginine A Attempt #25 (HarryS)] | 0.483 | 0.334 | 0.553 | 0.45 | 0.466 |
| GUCCCGAGUGAUGUUCGGGUCGUUUGGGAAGGAGCGCCCGGAAGGGCAGGUAGGUCGCCCGGACCCUGCAGGUAACUGUUGGGCC [#2 Same State - Arginine A Attempt #19 (HarryS)] | 0.206 | 0.154 | 0.21 | 0.215 | 0.194 |
| GUCUCAAAAGAGGCAAGCACUAACGAGGACAAGGAUAUCAUCUCAAUGAGAAGGUGUCCUCGUCCUUAGUGAUGUUAAGGAGUGC [Omei KL FMN A SS E v5] | 0.348 | 0.226 | 0.211 | 0.376 | 0.356 |
| GUGCGCGCGGCGGCCGCCACUCGCAUGAGAGUGAUGUUCUCACCGUGACCGUAAGGUCGCGGUGUGAGGACCGGGCCGGGCUGCG [#2 Same State - Tryptophan B Attempt #24 (HarryS)] | 0.181 | 0.114 | 0.207 | 0.0595 | 0.27 |
| GUGCGCGGUGCGGCCGCCACUCGGAUGCGAGUGAUGUUCGCGGGACGGACGCAAGUCCGUCAUUCGAGGACCGGGCAUGGCUGCA [#2 Same State - Tryptophan B Attempt #6 (HarryS)] | 0.197 | 0.196 | 0.242 | 0.183 | 0.137 |
| GUGCGGCUAGUGAUGUUGGUUGUGUGGGAAGGAGCGCAGAUUCAUGCAGGUAGGUCGCCCACACCUCUGAAAGGAGGCUAAUUCA [KL-SSArg-A16] | 0.453 | 0.3 | 0.315 | 0.368 | 0.331 |
| GUGCGGCUAGUGAUGUUGGUUGUGUGGGAAGGAGCGCAGAUUCAUGCAGGUAGGUCGCCCACACGUCUGAAAGGAUGAUAAUUCA [#12 K4 Arginine A Same State] | 0.409 | 0.306 | 0.354 | 0.407 | 0.35 |
| GUGGCACGAAAGUGCCACGCAUCCUCUCCCUAGGAUAUCUGGAAACAGAGAAGGAGGUCAUGAGUGAUGUUCAUCCAGAGGAUGC | 0.258 | 0.677 | 0.756 | 0.738 | 0.491 |
| GUUACGCAUGGAAGGAGCGCAGGCUCAACUUGAAGCUCAGUGAUGUUGAGCAAAUUAAAACUGCAGGUAGGUCGCCAUGUGUAAC [Ex Arginine B K4 27] | 0.548 | 0.474 | 0.655 | 0.644 | 0.448 |
| GUUACGCAUGGAAGGAGCGCAUGCUCAACAAUAAGCUCAGUGAUGUUGAGCAAAAUUAAAAUGCAGGUAGGUCGCCAUGUGUAAC [Ex Arginine B K4 28] | 0.542 | 0.519 | 0.576 | 0.528 | 0.555 |
| GUUAUGGACCUGGAUACCAGCUGGUACAAGGUCGGUCUACAUGAGUGAUGUUCAUGUGUCAGCCCUUGGCAGCCAGCAACCGGCA [KL-XTheo-B10] | 0.0903 | 0.0971 | 0.101 | 0.119 | 0.0862 |
| UAAGAAUAAGUAGCAGUGAUGUUGCUACUACGAGGACCGGUACGGCCGCCACUCGAGUCCUCGAAACAUCACUGAACGAGGAAUA [(H,1)-(H,2)-(Trp1)-(Trp2)-(T)'-(H)'-(T)''] | 0.231 | 0.15 | 0.201 | 0.136 | 0.358 |
